Test results taken from paper PMC6205457.

Key:
[1] = target: MCL1 (UniProt P97287); assay: SPR
[2] = target: biotinylated mouse MCL1 (amino acids 152-308) (mouse) (UniProt P97287); assay: SPR

Kd [1] [nM]	Kd [2] [nM]	Substance
4		PUMA 27-aa wild-type peptide (pseudo wild-type, M144A)
	7	PUMA27 I137tBu (peptide)
< 0.16		rPUMA (redesigned PUMA peptide: A139tBu, Q140Y, A144Cha, A145G, Y152Bzt)
